# T1: interferon receptors on Daudi cells and A549 cells (Homo sapiens (Human)) (UniProt P17181)
# T1 sequence 1: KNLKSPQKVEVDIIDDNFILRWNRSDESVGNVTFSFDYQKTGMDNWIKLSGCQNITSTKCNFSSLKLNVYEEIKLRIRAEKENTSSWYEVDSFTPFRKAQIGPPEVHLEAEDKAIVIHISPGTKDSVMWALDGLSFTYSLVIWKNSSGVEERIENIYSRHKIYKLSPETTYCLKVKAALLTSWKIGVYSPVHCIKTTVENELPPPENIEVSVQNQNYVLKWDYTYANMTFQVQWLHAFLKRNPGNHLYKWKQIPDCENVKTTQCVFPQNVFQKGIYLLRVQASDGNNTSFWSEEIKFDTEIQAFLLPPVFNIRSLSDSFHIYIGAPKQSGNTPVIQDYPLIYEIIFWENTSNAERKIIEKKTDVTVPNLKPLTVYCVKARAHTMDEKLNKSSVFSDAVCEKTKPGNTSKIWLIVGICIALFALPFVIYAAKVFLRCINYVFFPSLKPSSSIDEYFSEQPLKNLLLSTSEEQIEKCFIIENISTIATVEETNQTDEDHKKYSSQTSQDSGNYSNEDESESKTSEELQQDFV
# T1 sequence 2: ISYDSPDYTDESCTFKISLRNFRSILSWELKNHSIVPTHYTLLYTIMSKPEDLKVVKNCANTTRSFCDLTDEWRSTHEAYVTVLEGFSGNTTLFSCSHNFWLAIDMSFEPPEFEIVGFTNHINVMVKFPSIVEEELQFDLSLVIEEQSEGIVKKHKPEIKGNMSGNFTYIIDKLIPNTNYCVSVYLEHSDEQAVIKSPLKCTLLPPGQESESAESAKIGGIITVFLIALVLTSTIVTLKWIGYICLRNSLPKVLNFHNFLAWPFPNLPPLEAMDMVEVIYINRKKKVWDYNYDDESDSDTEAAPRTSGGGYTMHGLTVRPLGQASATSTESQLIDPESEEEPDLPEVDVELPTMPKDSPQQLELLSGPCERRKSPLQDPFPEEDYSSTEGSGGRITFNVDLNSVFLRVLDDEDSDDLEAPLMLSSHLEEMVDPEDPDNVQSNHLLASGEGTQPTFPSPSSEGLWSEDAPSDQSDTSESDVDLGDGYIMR
# B1: IFN-β(phe101) (ligand)
# chain: MSYNLLGFLQRSSNFQCQKLLWQLNGRLEYCLKDRMNFDIPEEIKQLQQFQKEDAALTIYEMLQNIFAIFRQDSSSTGWNETIVENLLANVYHQINHLKTFLEEKLEKEDFTRGKLMSSLHLKRYYGRILHYLKAKEYSHCAWTIVRVEILRNFYFINRLTGYLRN
# modifications: 125I label (chloramine T method) where used as the labelled ligand in the receptor binding assay; unlabelled as competitor and in the antiviral assays
# Tests used:
# [1] = target: T1, interferon receptors on Daudi cells and A549 cells (Homo sapiens (Human))
# [2] = target: T1, interferon receptors on Daudi cells and A549 cells (Homo sapiens (Human)); remark: listed apart in the source
Molecule,specific activity in the Cytopathic Effect (CPE) assay for antiviral activity (EMC virus) [1],specific activity in the antiviral assay relative to recombinant wild type IFN-β [2]
wild type recombinant IFN-β (ligand),2e+08 units/mg,–
B1,4.8e+08 U/mg,2.5 fold

# Reference: US6127332
